The text below walks through data of US5677280A, “Peptides and compounds that bind to the IL-5 receptor” (Glaxo Group Limited, priority 1995, dated 1997).

The term Kd denotes the equilibrium constant for the complex coming apart. In general, IC50 refers to the concentration needed to halve the response being measured. Read a high IC50 as weaker potency.

One experiment deals with T1, human IL-5 receptor (Homo sapiens, UniProt Q01344).
T1 construct: host or cells: subclone of HL60 induced towards eosinophil differentiation with sodium butyrate (endogenous receptor)
T1 sequence (Q01344 21-420): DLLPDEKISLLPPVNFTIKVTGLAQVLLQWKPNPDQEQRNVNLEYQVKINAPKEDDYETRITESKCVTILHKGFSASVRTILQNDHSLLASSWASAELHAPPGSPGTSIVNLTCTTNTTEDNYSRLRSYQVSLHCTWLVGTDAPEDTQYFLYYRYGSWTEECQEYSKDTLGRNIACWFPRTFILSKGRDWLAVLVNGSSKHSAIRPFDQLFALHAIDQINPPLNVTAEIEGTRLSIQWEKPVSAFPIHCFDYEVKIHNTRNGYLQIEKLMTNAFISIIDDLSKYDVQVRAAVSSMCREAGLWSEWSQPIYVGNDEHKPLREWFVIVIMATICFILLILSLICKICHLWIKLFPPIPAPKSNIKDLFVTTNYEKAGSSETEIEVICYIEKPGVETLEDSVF
T1 sequence (P32927 17-897 partner): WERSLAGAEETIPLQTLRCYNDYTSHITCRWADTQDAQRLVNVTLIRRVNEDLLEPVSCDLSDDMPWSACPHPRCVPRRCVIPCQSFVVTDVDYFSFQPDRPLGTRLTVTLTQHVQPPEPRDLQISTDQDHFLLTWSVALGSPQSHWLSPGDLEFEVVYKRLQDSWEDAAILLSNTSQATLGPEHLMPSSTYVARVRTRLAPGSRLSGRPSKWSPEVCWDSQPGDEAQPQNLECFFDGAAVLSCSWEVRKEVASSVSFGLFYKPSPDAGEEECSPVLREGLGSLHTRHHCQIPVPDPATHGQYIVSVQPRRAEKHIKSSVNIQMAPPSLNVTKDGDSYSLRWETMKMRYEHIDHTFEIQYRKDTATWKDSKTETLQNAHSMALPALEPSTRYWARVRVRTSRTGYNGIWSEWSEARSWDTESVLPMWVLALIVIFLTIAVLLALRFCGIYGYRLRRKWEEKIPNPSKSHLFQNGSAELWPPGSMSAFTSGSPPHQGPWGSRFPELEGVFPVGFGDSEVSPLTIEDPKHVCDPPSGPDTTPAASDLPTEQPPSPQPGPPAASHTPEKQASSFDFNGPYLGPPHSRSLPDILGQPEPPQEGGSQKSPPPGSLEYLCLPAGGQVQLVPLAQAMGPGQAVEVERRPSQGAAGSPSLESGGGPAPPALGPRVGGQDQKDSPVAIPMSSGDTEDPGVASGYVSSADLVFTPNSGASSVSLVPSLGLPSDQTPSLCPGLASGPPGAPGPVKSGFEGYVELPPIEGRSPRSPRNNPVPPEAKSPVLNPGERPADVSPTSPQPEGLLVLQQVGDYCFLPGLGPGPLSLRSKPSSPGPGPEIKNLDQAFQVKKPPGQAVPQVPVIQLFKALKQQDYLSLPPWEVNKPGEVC
Conditions: HL60 subclone, eosinophilic differentiation initiated with sodium butyrate; read-out: Kd of IL-5 binding sites; cited from earlier work.

Experiment [1] deals with extracellular domain (ECD) of the IL-5 receptor α chain, soluble (human) (UniProt Q01344). The experiment is described as follows: competition with [125I] IL-5 on immobilised soluble IL-5Rα; grade ++ = IC50 of 500 nm or less.

Regarding “IL-5: lymphokine secreted by T cells and mast cells having biological activities on B cells and eosinophils”, in the experiment with human IL-5 receptor, the Kd is 0.03 nM.

B1: peptide … (SEQ ID NO:7) (peptide)
peptide: DGYVCVEWARCPTCK
The molecule B1 registered an IC50 in experiment [1] of less than 500 nM.

B2: peptide … (SEQ ID NO:9) (peptide)
peptide: DGFVCVEWARCPNCR
Consider B2, for which the IC50 in experiment [1] is less than 500 nM.

B3: peptide … (SEQ ID NO:8) (peptide)
peptide: DGYVCVEWARCPMCT
In turn, B3 displayed an IC50 in experiment [1] of less than 500 nM.
